Where no end group is shown, it is not given here.

One series addresses T1, CDK2 (Homo sapiens, UniProt P20248+P24941).
T1 construct: hemagglutinin (HA); made in house; host or cells: Sf9 or High Five insect cells, baculovirus co-infection
The format is biochemical.

The target in another series is T2, cyclin A/CDK2 (Homo sapiens, UniProt P20248+P24941).
T2 construct: hemagglutinin (HA); made in house; host or cells: Sf9 or High Five insect cells, baculovirus co-infection
The format is biochemical.

T1 sequence (P20248 whole entry, one chain of several): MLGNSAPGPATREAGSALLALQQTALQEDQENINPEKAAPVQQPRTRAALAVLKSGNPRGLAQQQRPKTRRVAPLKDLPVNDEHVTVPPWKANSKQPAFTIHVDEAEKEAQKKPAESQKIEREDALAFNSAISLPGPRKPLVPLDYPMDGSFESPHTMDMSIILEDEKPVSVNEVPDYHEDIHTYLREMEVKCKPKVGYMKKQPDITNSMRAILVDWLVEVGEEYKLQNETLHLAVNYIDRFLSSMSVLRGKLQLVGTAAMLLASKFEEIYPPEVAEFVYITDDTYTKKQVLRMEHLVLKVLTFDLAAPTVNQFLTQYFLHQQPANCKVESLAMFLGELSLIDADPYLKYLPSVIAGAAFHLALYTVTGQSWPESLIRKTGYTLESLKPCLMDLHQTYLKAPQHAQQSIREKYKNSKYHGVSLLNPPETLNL
T2 sequence (P20248 whole entry, one chain of several): as above

On to “GST-16E7 (16-38): internal HPV16 E7 region, residues 16-38, GST fusion”, for which the “induced kinase activity, level relative to that by full length E7” value with CDK2 is given as 53%. As for “GST-16E7(1-27): HPV16 E7 truncation, residues 1-27, GST fusion (MHGDTPTLHEYMLDLQPETTDLYCYEQ; also: GST fusion partner left off)”, in the series with CDK2, the “relative kinase activity compared to activity in the presence of full length E7” value (“relative kinase activity … of full length E7” below) came out at 28.64% and the “relative kinase activity compared to full length E7, repeat experiment” value came to 52%. Take “GST-E7 (20-48): internal HPV16 E7 region, residues 20-48, GST fusion (TDLYCYEQLNDSSEEEDEIDGPAGQAEPD; also: GST fusion partner left off)”: the “induced kinase activity, level relative to that by full length E7” value in the series with CDK2 came out at 33%. Consider “GST-HPV16-E7(39-98): HPV16 E7 amino terminal deletion, residues 39-98, GST fusion (DGPAGQAEPDRAHYNIVTFCCKCDSTLRLCVQSTHVDIRTLEDLLMGTLGIVCPICSQKP; cysteine pairing not given here; also: GST fusion partner left off)”, for which, in the series with cyclin A/CDK2, the “activation of cyclinA/CDK2, % of the activation activity of full length GST-HPV 16 E7” value came out at 28.6% and the “activation potential, repeat experiment” value is on record as 18%. Also, the “induced kinase activity, level relative to that by full length E7” value with CDK2 is on record as 18%.

For the molecule “GST: glutathione-S-transferase alone, control for the fusion proteins [reference compound]”, the “effect on cyclin A/CDK2 histone H1 kinase activity” value with cyclin A/CDK2 is listed as “no effect”. As for “HPV E7(1-15): HPV16 E7 truncation, residues 1-15, GST fusion (MHGDTPTLHEYMLDL; also: GST fusion partner left off)”, the “relative kinase activity … of full length E7” value in the series with CDK2 is on record as 15%. The same measure, in the same setting: to “HPV E7(1-38): HPV16 E7 truncation, residues 1-38, GST fusion (MHGDTPTLHEYMLDLQPETTDLYCYEQLNDSSEEEDEI; also: GST fusion partner left off)” belongs “approximately 72%”. In the case of “HPV E7(1-48): HPV16 E7 truncation, residues 1-48, GST fusion (MHGDTPTLHEYMLDLQPETTDLYCYEQLNDSSEEEDEIDGPAGQAEPD; also: GST fusion partner left off)”, in the series with CDK2, the “relative kinase activity … of full length E7” value worked out at 73.25%.

B1: HPV6b: low risk-derived E7 from HPV6b, expressed as a GST fusion protein (protein)
chain: MHGRHVTLKDIVLDLQPPDPVGLHCYEQLVDSSEDEVDEVDGQDSQPLKQHFQIVTCCCGCDSNVRLVVQCTETDIREVQQLLLGTLNIVCPICAPKT
modifications: left off: a dimerising Fc or GST
For the molecule B1, the “activation of CDK2 histone kinase activity” value with CDK2 was determined as 15.8 fold.

B2: GST-HPV16-E7(16-98): GST-E7 construct encoding HPV16 amino acids 16-98 (protein)
chain: QPETTDLYCYEQLNDSSEEEDEIDGPAGQAEPDRAHYNIVTFCCKCDSTLRLCVQSTHVDIRTLEDLLMGTLGIVCPICSQKP
modifications: left off: a dimerising Fc or GST
B2: in the series with cyclin A/CDK2, the “activation of cyclinA/CDK2, % of the activation activity of full length GST-HPV 16 E7” value was found to be 53%.

B3: Δ12; Δ24, 26; Δ31, 32: E7 with combined point mutations Δ12, Δ24, 26 and Δ31, 32 (protein, UniProt P03129 1-98, looked up, variant M12* C24* E26* S31* S32*)
Protein E7: MHGDTPTLHEYLDLQPETTDLYYQLNDEEEDEIDGPAGQAEPDRAHYNIVTFCCKCDSTLRLCVQSTHVDIRTLEDLLMGTLGIVCPICSQKP
modifications: GST fusion
For B3, the “% Control Activation Exp. 2” value in the series with CDK2 stood at 83.1%.

B4: Δ12; Δ24, 26: E7 with combined point mutations Δ12 and Δ24, 26 (protein, UniProt P03129 1-98, looked up, variant M12* C24* E26*)
Protein E7: MHGDTPTLHEYLDLQPETTDLYYQLNDSSEEEDEIDGPAGQAEPDRAHYNIVTFCCKCDSTLRLCVQSTHVDIRTLEDLLMGTLGIVCPICSQKP
modifications: GST fusion
Take B4: in the series with CDK2, the “% Control Activation Exp. 1” value amounted to 85.2% and the “% Control Activation Exp. 2” value worked out at 93.5%.

B5: HPV E7(1-69): HPV16 E7 truncation, residues 1-69, GST fusion (protein)
chain: MHGDTPTLHEYMLDLQPETTDLYCYEQLNDSSEEEDEIDGPAGQAEPDRAHYNIVTFCCKCDSTLRLCV
modifications: also: GST fusion partner left off
notes: HPV16 E7 truncation, residues 1-69, GST fusion
In the case of B5, in the series with CDK2, the “relative kinase activity … of full length E7” value was found to be 82.45%.

B6: GST-HPV16-E7(9-98): GST-E7 construct encoding HPV16 amino acids 9-98 (protein)
chain: HEYMLDLQPETTDLYCYEQLNDSSEEEDEIDGPAGQAEPDRAHYNIVTFCCKCDSTLRLCVQSTHVDIRTLEDLLMGTLGIVCPICSQKP
modifications: left off: a dimerising Fc or GST
Consider B6, for which, in the series with cyclin A/CDK2, the “activation of cyclinA/CDK2, % of the activation activity of full length GST-HPV 16 E7” value is recorded as 64%.

B7: HPV E7(1-87): HPV16 E7 truncation, residues 1-87, GST fusion (protein)
chain: MHGDTPTLHEYMLDLQPETTDLYCYEQLNDSSEEEDEIDGPAGQAEPDRAHYNIVTFCCKCDSTLRLCVQSTHVDIRTLEDLLMGTL
modifications: left off: a dimerising Fc or GST
notes: HPV16 E7 truncation, residues 1-87, GST fusion
As for B7, in the series with CDK2, the “relative kinase activity … of full length E7” value was determined as 76.67%.

The values above are taken from US6641994B2, “Methods of identifying anti-viral agents” (Pharmacia & Upjohn Company, priority 1999, dated 2003).
